Assay [1] concerns the target T1, Eukaryotic initiation factor 4A (eIF4A1), endogenous in 231S cells (human, UniProt P60842 2-406).
T1 construct: Endogenous intracellular protein; eIF4A1 antibody (Cohesion CQA1180) used in PLA and IP, eIF4A C32B4 in Western blots
The assay is described as follows: proximity ligation assay in 231S cells, CXCL12 5 min against unstimulated. As to the method:
100 nM AMD3465 was added 30 min prior to stimulation. […] Representative images of the PLA experiment are provided. Quantification indicates the average number of interactions/cell across multiple independent fields.

The target of assay [2] is eIF4E, endogenous in 231S cells (human) (UniProt P06730). Nature of the assay: m7GTP pulldown from 231S lysate after CXCL12, LASP1/eIF4E densitometry against 0 min; association may be through the complex.
Chain of eIF4E, endogenous in 231S cells (human) (P06730 2-217 limits assumed): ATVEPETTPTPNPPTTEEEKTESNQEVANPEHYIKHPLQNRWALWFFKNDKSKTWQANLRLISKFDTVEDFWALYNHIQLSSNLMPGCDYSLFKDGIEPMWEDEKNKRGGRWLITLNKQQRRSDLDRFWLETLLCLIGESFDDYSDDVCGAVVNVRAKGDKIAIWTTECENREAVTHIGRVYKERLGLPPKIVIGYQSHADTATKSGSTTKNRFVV
Assay [3] concerns the target T1, Eukaryotic initiation factor 4A …. The assay is described as follows: reciprocal co-immunoprecipitation (LASP1 IP, eIF4A blot) from 231S lysate, densitometry against 0 min. As to the method:
(§1) 1 mg of total protein lysate was employed in all immunoprecipitation reactions. eIF4B was immunoprecipitated by using 2 μg of eIF4B antibody (Cell Signaling Technology, Danvers, Mass., Cat. No. 13088). Mouse (G3A1) mAb IgG1 Isotype Control (Cell Signaling Technology, Danvers, Mass., Cat. No. 5415) served as the mock control. Next, eIF4A was immunoprecipitated using 2 μg of eIF4A1 antibody (Cohesion Biosciences, London, Purley, Cat. No. CQA1180). His-Tag (D3L10) XP® Rabbit mAb (Cell Signaling Technology, Danvers, Mass., Cat. No. 12698) was employed for the mock condition. […] As in the eIF4B Co-IP, mouse (G3A1) IgG1 isotype mAb was employed as the mock control. Prior to immunoprecipitation, lysates were pre-cleared with 20 μL of PureProteome™ Protein G Magnetic Beads (Millipore, Billerica, Mass., Cat. No. LSKMAGG10) for 2 H at 4° C. Immunoprecipitation reactions were then allowed to proceed with 20 μL of protein G magnetic beads and the appropriate amount of antibody for 2 h at 4° C. Beads were washed thrice with Co-IP buffer. To avoid heavy chain contamination (55 kDa) in the eIF4A Co-IP, antibodies were cross-linked using BS³ (according to Millipore recommendations). Proteins of interest were analyzed by sodium dodecyl sulfate-polyacrylamide gel electrophoresis (SDS-PAGE) and Western blotting.

For assay [4], the target named is T2, Eukaryotic initiation factor 4B (eIF4B), endogenous in 231S cells (human, UniProt P23588 1-611).
T2 construct: Endogenous protein in lysate
T2 sequence (P23588 whole entry): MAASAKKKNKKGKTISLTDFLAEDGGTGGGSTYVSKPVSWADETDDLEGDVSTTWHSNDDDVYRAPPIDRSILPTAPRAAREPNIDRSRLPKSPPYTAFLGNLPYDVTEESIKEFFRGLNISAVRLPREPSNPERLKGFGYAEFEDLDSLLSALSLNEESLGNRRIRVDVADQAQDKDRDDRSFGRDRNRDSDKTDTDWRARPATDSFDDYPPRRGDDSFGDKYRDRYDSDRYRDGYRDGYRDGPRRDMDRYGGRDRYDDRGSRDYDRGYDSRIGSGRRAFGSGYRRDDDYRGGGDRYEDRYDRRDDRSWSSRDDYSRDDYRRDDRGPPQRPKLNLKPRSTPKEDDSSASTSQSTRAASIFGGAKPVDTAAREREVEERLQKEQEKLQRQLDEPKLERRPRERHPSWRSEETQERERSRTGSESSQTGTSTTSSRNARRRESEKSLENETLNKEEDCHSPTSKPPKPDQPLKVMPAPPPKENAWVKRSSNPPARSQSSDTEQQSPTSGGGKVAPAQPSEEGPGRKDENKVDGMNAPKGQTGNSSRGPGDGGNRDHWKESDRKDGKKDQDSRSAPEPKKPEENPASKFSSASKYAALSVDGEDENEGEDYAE
The assay is described as follows: reciprocal co-immunoprecipitation (LASP1 IP, eIF4B blot) from 231S lysate, densitometry against 0 min. As to the method:
as §1

T1 sequence (P60842 2-406 limits assumed): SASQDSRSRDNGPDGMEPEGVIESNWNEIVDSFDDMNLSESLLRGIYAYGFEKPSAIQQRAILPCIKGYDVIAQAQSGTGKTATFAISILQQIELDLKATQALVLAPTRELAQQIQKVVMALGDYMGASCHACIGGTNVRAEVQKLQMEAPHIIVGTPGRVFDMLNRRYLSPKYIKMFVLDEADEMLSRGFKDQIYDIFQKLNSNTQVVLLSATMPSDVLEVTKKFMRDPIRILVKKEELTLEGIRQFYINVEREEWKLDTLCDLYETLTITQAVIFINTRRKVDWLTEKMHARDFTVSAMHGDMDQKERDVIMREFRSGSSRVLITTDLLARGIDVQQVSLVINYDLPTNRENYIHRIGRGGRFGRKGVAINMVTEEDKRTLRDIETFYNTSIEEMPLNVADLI

B1: LIM and SH3 Protein 1 (LASP1), endogenous in 231S cells (other, human, UniProt Q14847 1-261, looked up)
chain: MNPNCARCGKIVYPTEKVNCLDKFWHKACFHCETCKMTLNMKNYKGYEKKPYCNAHYPKQSFTMVADTPENLRLKQQSELQSQVRYKEEFEKNKGKGFSVVADTPELQRIKKTQDQISNIKYHEEFEKSRMGPSGGEGMEPERRDSQDGSSYRRPLEQQQPHHIPTSAPVYQQPQQQPVAQSYGGYKEPAAPVSIQRSAPGGGGKRYRAVYDYSAADEDEVSFQDGDTIVNVQQIDDGWMYGTVERTGDTGMLPANYVEAI
notes: Endogenous intracellular protein; detected or immunoprecipitated with mouse LASP1 antibody 8C6 (Biolegend 909301); also called endogenous LASP1
On to B1, for which the “fold stimulation of the interaction” value in assay [1] is 3 fold. Further, the fold increase in association in assay [2] was 2.2 fold; in assay [3], 19.1 fold; in assay [4], 7.5 fold.

These data come from patent US20220151976A1 (UNIVERSITY OF TOLEDO, published 2022).
